These results are taken from patent US20260055368A1 (KIROMIC BIOPHARMA, published 2026).

For assay [1], the target named is MSLN isoform 1 (Mesothelin canonical polypeptide) (Homo sapiens (Human)) (UniProt Q13421). Kind of assay: flow cytometry on Lenti-X 293T cells transiently expressing MSLN isoform 1 (EGFP-gated). A general note: A flow cytometer gives signals particle by particle.
In assay [2] the target is Mesothelin isoform 2 (IsoMSLN) (Homo sapiens (Human)) (UniProt Q13421). As to the kind of experiment: flow cytometry on Lenti-X 293T cells transiently expressing MSLN isoform 2 (EGFP-gated).
Assay [3] has as its target MSLN isoform 1 (Mesothelin canonical polypeptide) (Homo sapiens (Human), UniProt Q13421 37-598). As to the kind of experiment: flow cytometry on Lenti-X 293T cells transiently expressing MSLN isoform 1. The text has this:
(§1) FIGS. 13A-13C show detection of cell surface expression of MSLN isoform 1 and 2 on the tumor cell surface by anti-isoMSLN-specific antibodies. FIG. 13A: the binding curve of different MSLN antibody clones in MSLN isoform 1 or isoform 2 overexpressing 293T cells. MSLN isoform 1 or 2 were transiently expressed in Lenti-X 293T cells; 48 hrs after transfection the cells were harvested and stained for different anti-MSLN antibody or mIgG1 isotype control (with different antibody concentration). MSLN-expressing cells were gated based on EGFP expression. The antibody binding MFI is plot along with the antibody concentration. FIG. 13B: flow cytometry staining of NCI H226 and Hela tumor cell lines with different anti-MSLN antibody clones. FIG. 13C: binding curve of increasing concentration of anti-IsoMSLN antibody clones to NCI H226 cells. The positive percentage of MSLN is plotted versus the antibody concentration.
(§2) Cell transfection and flow cytometry. […] 3 days after transfection, the transfected cells were harvested, counted, and wash once with FACS buffer, and resuspended in 100 μl FACS buffer containing […] human FcR blocker (BD Bioscience) per 0.1 million cells for 10 min, 4° C. […] Samples were acquired with NovoCyte 3000 and analyzed by NovoExpress (ACEA Biosciences Inc).

The target of assay [4] is T1, Mesothelin isoform 2 (IsoMSLN) (Homo sapiens (Human), UniProt Q13421 37-598).
T1 construct: It was transiently expressed in Lenti-X 293T cells and is endogenous on NCI H226 cells; also called MSLN isoform 2; IsoMSLN2
As to the kind of experiment: flow cytometry on Lenti-X 293T cells transiently expressing MSLN isoform 2 (EGFP-gated).
From the text: as §1, §2

Sequence of MSLN isoform 1 (Mesothelin canonical polypeptide) (Homo sapiens (Human)) (Q13421 other isoform, or with tags, fused parts or gaps limits assumed): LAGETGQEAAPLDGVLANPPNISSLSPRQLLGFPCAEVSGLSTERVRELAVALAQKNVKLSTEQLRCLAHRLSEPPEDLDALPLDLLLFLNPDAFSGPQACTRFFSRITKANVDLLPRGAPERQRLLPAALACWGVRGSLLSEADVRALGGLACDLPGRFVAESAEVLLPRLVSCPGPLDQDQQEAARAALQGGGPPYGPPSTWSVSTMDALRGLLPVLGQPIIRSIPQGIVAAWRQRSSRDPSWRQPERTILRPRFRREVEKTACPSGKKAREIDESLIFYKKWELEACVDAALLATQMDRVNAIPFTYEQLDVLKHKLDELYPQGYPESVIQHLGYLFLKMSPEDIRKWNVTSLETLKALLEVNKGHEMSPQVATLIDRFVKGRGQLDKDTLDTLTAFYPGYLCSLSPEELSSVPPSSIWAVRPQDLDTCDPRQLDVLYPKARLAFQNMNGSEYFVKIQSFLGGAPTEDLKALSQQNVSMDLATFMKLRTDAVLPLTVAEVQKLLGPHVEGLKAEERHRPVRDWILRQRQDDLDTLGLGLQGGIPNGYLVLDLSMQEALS
Sequence of MSLN isoform 1 (Mesothelin canonical polypeptide) (Q13421 other isoform, or with tags, fused parts or gaps limits assumed): as above
T1 sequence (Q13421 37-606 limits assumed, form in doubt): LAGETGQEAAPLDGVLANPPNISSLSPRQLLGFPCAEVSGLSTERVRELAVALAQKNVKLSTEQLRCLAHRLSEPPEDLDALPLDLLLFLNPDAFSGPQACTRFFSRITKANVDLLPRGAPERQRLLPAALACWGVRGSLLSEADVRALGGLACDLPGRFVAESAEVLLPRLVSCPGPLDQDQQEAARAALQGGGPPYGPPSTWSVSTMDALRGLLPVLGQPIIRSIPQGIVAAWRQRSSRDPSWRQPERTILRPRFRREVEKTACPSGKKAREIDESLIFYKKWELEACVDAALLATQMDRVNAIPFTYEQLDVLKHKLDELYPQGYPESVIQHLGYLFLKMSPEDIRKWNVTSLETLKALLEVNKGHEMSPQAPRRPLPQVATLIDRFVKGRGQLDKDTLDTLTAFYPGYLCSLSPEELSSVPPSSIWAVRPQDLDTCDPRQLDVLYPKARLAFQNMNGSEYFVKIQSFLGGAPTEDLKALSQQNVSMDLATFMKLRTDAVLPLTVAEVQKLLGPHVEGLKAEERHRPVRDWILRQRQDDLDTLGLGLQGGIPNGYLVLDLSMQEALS
Sequence of Mesothelin isoform 2 (IsoMSLN) (Homo sapiens (Human)) (Q13421 37-606 limits assumed, form in doubt): as above

The term EC50 denotes the concentration that produces a half-maximal response. The low end stands for higher potency in that assay, the high end for lower potency in that assay. In the case of Anti-MSLN mAb clone K1 (antibody), the EC50 in assay [1] worked out at 0.152 µg/mL; in assay [2], 0.106 µg/mL.

B1: 1B6 monoclonal antibody (Binding Molecule A) (antibody, V domains shown)
VH: EVKLVESGGGLVKPGGSLKLSCEASGFTFSRYAMSWVRHTPEKRLAWVASITFGGDPYYPDGLKGRFTISRDNTRNILYLQMNSLRSEDTAMYYCVRHESWFAYWGQGTLVTVSA
VL: DVLMTQTPLSLPVSLGEQVSISCRSSQTIVHTDGNIYLEWYLQNPGQSPRLLIYKISNRFSGVPDRFSGSGSGTDFTLKISRVEAEDLGIYYCFQASHVPYTFGGGTKLEIK
notes: also called 1B6 antibody; 1B6 clone
Regarding B1, in assay [3], the binding result is “no binding”. This molecule showed an EC50 in assay [4] of 0.073 µg/mL.
